Measurements published in the DeepSol protein solubility set.

experiment: soluble on expression in E. coli; label from the status in PepcDB or PDB records

Sequence	soluble on expression in E. coli
MAEEFVTLKDVGMDFTLGDWEQLGLEQGDTFWDTALDNCQDLFLLDPPRPNLTSHPDGSEDLEPLAGGSPEATSPDVTETKNSPLMEDFFEEGFSQEIIEMLSKDGFWNSNFGEACIEDTWLDSLLGDPESLLRSDIATNGESPTECKSHELKRGLSPVSTVSTGEDSMVHNVSEKTLTPAKSKEYRGEFFSYSDHSQQDSVQEGEKPYQCSECGKSFSGSYRLTQHWITHTREKPTVHQECEQGFDRNASLSVYPKTHTGYKFYVCNEYGTTFSQSTYLWHQKTHTGEKPCKSQDSDHPPSHDTQPGEHQKTHTDSKSYNCNECGKAFTRIFHLTRHQKIHTRKRYECSKCQATFNLRKHLIQHQKTHAAKTTSECQECGKIFRHSSLLIEHQALHAGEEPYKCNERGKSFRHNSTLKIHQRVHSGEKPYKCSECGKAFHRHTHLNEHRRIHTGYRPHKCQECVRSFSRPSHLMRHQAIHTAEKPYSCAECKETFSDNNRLVQHQKMHTVKTPYECQECGERFICGSTLKCHESVHAREKQGFFVSGKILDQNPEQKEKCFKCNKCEKTFSCSKYLTQHERIHTRGVKPFECDQCGKAFGQSTRLIHHQRIHSRVRLYKWGEQGKAISSASLIKLQSFHTKEHPFKCNECGKTFSHSAHLSKHQLIHAGENPFKCSKCDRVFTQRNYLVQHERTHARKKPLVCNECGKTFRQSSCLSKHQRIHSGEKPYVCDYCGKAFGLSAELVRHQRIHTGEKPYVCQECGKAFTQSSCLSIHRRVHTGEKPYRCGECGKAFAQKANLTQHQRIHTGEKPYSCNVCGKAFVLSAHLNQHLRVHTQETLYQCQRCQKAFRCHSSLSRHQRVHNKQQYCL	soluble
MAEIRVGTASWTDPTLLASGWYPPGVRNHPERRLRYYAQHFDTVEVDSTFYALPRLEVVRKWAERTPEGFLFHVKAYSAFTGHGLEASALPKDLQALLPQKEGHLSQREVPEEVVEEAWNRFFASLAPLREAGKLGYLHFGLPPWTEPKPRSFRYLERLAERTQGYLVAVEFRNPRWYTAWGFVKRELMRLGLAHVSVDAPPHPEAPPRVLEPTREVAVLRCHGRNAETWKGPHQKPYERFNWRYSEEELLDLAEATRTLAAQAERVFVIFNNNYGTQGVEAALGLKRLLGLGKPPWAEGPFS	soluble
MAEKEHNPGNVKPNRSWTSVLGTKITFSEGLILNIEGYYKYIFNRMYIPVSIGLDDFDIRPQFNGEGRVWGIDLMLQKLQSRYWDGWLSYSYSWARYRDPSSGNATIGFSGGTRGNDWYFPNFHRFHNLNLVINIKPAPQFNFYTRFGLASGTQLPRRTTDRPATYPVFMFDDPETPGIPKFVQRYNWPSETDEDNRTTPTLSMDIKFSFFGKNRTGKTRYEIYFALENVLSLVYRPQGNTRFNTFTGVIETGSDAASYGLPIPIPSFGFKFSY	not soluble
MAEKLGPEKRHAFVHNGQKVFEWDQTLEEVNMYIELPKGVPTKLFHCAIQATHVEVGIRGNPPYLNFYICGSYFLYELSIQFSEQFDEWTPSSEDGEMHITLQKREKGKTWSSPIQGQGSLDPYAADQEQKRLMLQRFQEENPGFDFSQAQFTGTCPDPRTFMGGIRSD	soluble
MAELACFCYPHLENDSYKFIPFNNLAIKAMLTAKVDKKDMDKFYDSIIYGIAPPPQFKKRYNTNDNSRGMNFETIMFTKVAMLICEALNSLKVTQANVSNVLSRVVSIRHLENLVIRKENPQDILFHSKDLLLKSTLIAIGQSKEIETTITAEGGEIVFQNAAFTMWKLTYLEHQLMPILDQNFIEYKVTLNEDKPISDVHVKELVAELRWQYNKFAVITHGKGHYRIVKYSSVANHADRVYATFKSNVKTGVNNDFNLLDQRIIWQNWYAFTSSMKQGNTLDVCKRLLFQKMKPEKNPFKGLSTDRKMDEVSQVGV	soluble
MAELLLGVNIDHIATLRNARGTDYPDPVQAAFIAEQAGADGITVHLREDRRHITDRDVRILRQTLHTRMNLEMAVTEEMLAIAVETRPHFCCLVPEKRQEVTTEGGLDVAGQRDKMRDACARLAAAGIQVSLFIDADETQINAAAEVGAPFIEIHTGCYANAETDAEQAKELARIASAATLAARLGLKVNAGHGLTYHNVKAIAALPEMHELNIGHAIIGRAVMTGLKEAVAEMKRLMLEARG	not soluble
MAENVGSDSSEFESISSSQKSYLKNCPFAGHEALPTKSTDSDNTEVLGNQISPAVVKTPILSFSSPTSLDSINDDVFRTPPENASLSSAAESEPRVGVSEIKLQGGSNLTTPFSMAETTLVSSSPSLPAENVRVSESNLKSSSSTAKTTPVSASPSVNARVSESNLNSSSSTTPVSVSPSEKVRVFETTPVSASPSEKVRVFETKCHSDSGDSVPLSSSPPSVAADDVRVPAKHLDSDSSPPTAIGRTMVLVKQRISASDNSASSSASEGTKVSKTENSGEVLPFKEIIEALLRNSGEKLNERDDKVSYVEILKQCGLKFPK	soluble
